Measurements reported in patent US20160113911A1, “METHODS AND COMPOSITIONS FOR THE TREATMENT OF CANCER” (THE GENERAL HOSPITAL CORPORATION, priority 2013, published 2016).

Legend:
[1] = system: H3K36me3; assay: H3K36 demethylase activity of KDM4A variants in transfected cells (immunofluorescence); format: cell-based; set-up: key: + indicates active; − indicates inactive; +/− indicates partial acitivty; details: KDM4A mutations
Method: The indicated NHF-tagged KDM4A deletion constructs were transfected into RPE cells grown on coverslips in 10 cm dishes using X-tremeGENE 9™ DNA transfection reagent (Roche). H3K36me3 and subcellular localization were assayed by examining transfected cells (positive for HA staining; HA.11 Covance) following fixation in 3.7% PFA in PBS (Whetstine et al., 2006).
All immunofluorescence experiments were performed as in (Black et al., 2013). For the localization experiment a minimum of 50 cells were blinded and scored. For the catalytic activity, cells overexpressing a high level of KDM4A WT or SNP-A482 were analyzed in a non quantitative manner.

[2] = system: H3K9me3; assay: H3K9 demethylase activity of KDM4 variants in transfected cells; format: cell-based; set-up: key: + indicates active; − indicates inactive; +/− indicates partial acitivty; details: KDM4A mutations

Molecule	H3k36 Demethylase Activity [1]	H3k9 Demethylase Activity [2]
2A-R152W*: KDM4A mutation (protein, UniProt O75164 2-1064, looked up, variant R152W) Lysine-specific demethylase 4A: ASESETLNPSARIMTFYPTMEEFRNFSRYIAYIESQGAHRAGLAKVVPPKEWKPRASYDDIDDLVIPAPIQQLVTGQSGLFTQYNIQKKAMTVREFRKIANSDKYCTPRYSEFEELERKYWKNLTFNPPIYGADVNGTLYEKHVDEWNIGWLRTILDLVEKESGITIEGVNTPYLYFGMWKTSFAWHTEDMDLYSINYLHFGEPKSWYSVPPEHGKRLERLAKGFFPGSAQSCEAFLRHKMTLISPLMLKKYGIPFDKVTQEAGEFMITFPYGYHAGFNHGFNCAESTNFATRRWIEYGKQAVLCSCRKDMVKISMDVFVRKFQPERYKLWKAGKDNTVIDHTLPTPEAAEFLKESELPPRAGNEEECPEEDMEGVEDGEEGDLKTSLAKHRIGTKRHRVCLEIPQEVSQSELFPKEDLSSEQYEMTECPAALAPVRPTHSSVRQVEDGLTFPDYSDSTEVKFEELKNVKLEEEDEEEEQAAAALDLSVNPASVGGRLVFSGSKKKSSSSLGSGSSRDSISSDSETSEPLSCRAQGQTGVLTVHSYAKGDGRVTVGEPCTRKKGSAARSFSERELAEVADEYMFSLEENKKSKGRRQPLSKLPRHHPLVLQECVSDDETSEQLTPEEEAEETEAWAKPLSQLWQNRPPNFEAEKEFNETMAQQAPHCAVCMIFQTYHQVEFGGFNQNCGNASDLAPQKQRTKPLIPEMCFTSTGCSTDINLSTPYLEEDGTSILVSCKKCSVRVHASCYGVPPAKASEDWMCSRCSANALEEDCCLCSLRGGALQRANDDRWVHVSCAVAILEARFVNIAERSPVDVSKIPLPRFKLKCIFCKKRRKRTAGCCVQCSHGRCPTAFHVSCAQAAGVMMQPDDWPFVVFITCFRHKIPNLERAKGALQSITAGQKVISKHKNGRFYQCEVVRLTTETFYEVNFDDGSFSDNLYPEDIVSQDCLQFGPPAEGEVVQVRWTDGQVYGAKFVASHPIQMYQVEFEDGSQLVVKRDDVYTLDEELPKRVKSRLSVASDMRFNEIFTEKEVKQEKKRQRVINSRYREDYIEPALYRAIME	+	+
2A-I87V: KDM4A mutation (protein) MASESETLNPSARIMTFYPTMEEFRNFSRYIAYIESQGAHRAGLAKVVPPKEWKPRASYDDIDDLVIPAPIQQLVTGQSGLFTQYNVQKKAMTVREFRKIANSDKYCTPRYSEFEELERKYWKNLTFNPPIYGADVNGTLYEKHVDEWNIGRLRTILDLVEKESGITIEGVNTPYLYFGMWKTSFAWHTEDMDLYSINYLHFGEPKSWYSVPPEHGKRLERLAKGFFPGSAQSCEAFLRHKMTLISPLMLKKYGIPFDKVTQEAGEFMITFPYGYHAGFNHGFNCAESTNFATRRWIEYGKQAVLCSCRKDMVKISMDVFVRKFQPERYKLWKAGKDNTVIDHTLPTPEAAEFLKESELPPRAGNEEECPEEDMEGVEDGEEGDLKTSLAKHRIGTKRHRVCLEIPQEVSQSELFPKEDLSSEQYEMTECPAALAPVRPTHSSVRQVEDGLTFPDYSDSTEVKFEELKNVKLEEEDEEEEQAAAALDLSVNPASVGGRLVFSGSKKKSSSSLGSGSSRDSISSDSETSEPLSCRAQGQTGVLTVHSYAKGDGRVTVGEPCTRKKGSAARSFSERELAEVADEYMFSLEENKKSKGRRQPLSKLPRHHPLVLQECVSDDETSEQLTPEEEAEETEAWAKPLSQLWQNRPPNFEAEKEFNETMAQQAPHCAVCMIFQTYHQVEFGGFNQNCGNASDLAPQKQRTKPLIPEMCFTSTGCSTDINLSTPYLEEDGTSILVSCKKCSVRVHASCYGVPPAKASEDWMCSRCSANALEEDCCLCSLRGGALQRANDDRWVHVSCAVAILEARFVNIAERSPVDVSKIPLPRFKLKCIFCKKRRKRTAGCCVQCSHGRCPTAFHVSCAQAAGVMMQPDDWPFVVFITCFRHKIPNLERAKGALQSITAGQKVISKHKNGRFYQCEVVRLTTETFYEVNFDDGSFSDNLYPEDIVSQDCLQFGPPAEGEVVQVRWTDGQVYGAKFVASHPIQMYQVEFEDGSQLVVKRDDVYTLDEELPKRVKSRLSVASDMRFNEIFTEKEVKQEKKRQRVINSRYREDYIEPALYRAIME	+	+
2A-K123I: KDM4A mutation (protein) MASESETLNPSARIMTFYPTMEEFRNFSRYIAYIESQGAHRAGLAKVVPPKEWKPRASYDDIDDLVIPAPIQQLVTGQSGLFTQYNIQKKAMTVREFRKIANSDKYCTPRYSEFEELERKYWINLTFNPPIYGADVNGTLYEKHVDEWNIGRLRTILDLVEKESGITIEGVNTPYLYFGMWKTSFAWHTEDMDLYSINYLHFGEPKSWYSVPPEHGKRLERLAKGFFPGSAQSCEAFLRHKMTLISPLMLKKYGIPFDKVTQEAGEFMITFPYGYHAGFNHGFNCAESTNFATRRWIEYGKQAVLCSCRKDMVKISMDVFVRKFQPERYKLWKAGKDNTVIDHTLPTPEAAEFLKESELPPRAGNEEECPEEDMEGVEDGEEGDLKTSLAKHRIGTKRHRVCLEIPQEVSQSELFPKEDLSSEQYEMTECPAALAPVRPTHSSVRQVEDGLTFPDYSDSTEVKFEELKNVKLEEEDEEEEQAAAALDLSVNPASVGGRLVFSGSKKKSSSSLGSGSSRDSISSDSETSEPLSCRAQGQTGVLTVHSYAKGDGRVTVGEPCTRKKGSAARSFSERELAEVADEYMFSLEENKKSKGRRQPLSKLPRHHPLVLQECVSDDETSEQLTPEEEAEETEAWAKPLSQLWQNRPPNFEAEKEFNETMAQQAPHCAVCMIFQTYHQVEFGGFNQNCGNASDLAPQKQRTKPLIPEMCFTSTGCSTDINLSTPYLEEDGTSILVSCKKCSVRVHASCYGVPPAKASEDWMCSRCSANALEEDCCLCSLRGGALQRANDDRWVHVSCAVAILEARFVNIAERSPVDVSKIPLPRFKLKCIFCKKRRKRTAGCCVQCSHGRCPTAFHVSCAQAAGVMMQPDDWPFVVFITCFRHKIPNLERAKGALQSITAGQKVISKHKNGRFYQCEVVRLTTETFYEVNFDDGSFSDNLYPEDIVSQDCLQFGPPAEGEVVQVRWTDGQVYGAKFVASHPIQMYQVEFEDGSQLVVKRDDVYTLDEELPKRVKSRLSVASDMRFNEIFTEKEVKQEKKRQRVINSRYREDYIEPALYRAIME	+	
2A-E113K: KDM4A mutation (protein) MASESETLNPSARIMTFYPTMEEFRNFSRYIAYIESQGAHRAGLAKVVPPKEWKPRASYDDIDDLVIPAPIQQLVTGQSGLFTQYNIQKKAMTVREFRKIANSDKYCTPRYSKFEELERKYWKNLTFNPPIYGADVNGTLYEKHVDEWNIGRLRTILDLVEKESGITIEGVNTPYLYFGMWKTSFAWHTEDMDLYSINYLHFGEPKSWYSVPPEHGKRLERLAKGFFPGSAQSCEAFLRHKMTLISPLMLKKYGIPFDKVTQEAGEFMITFPYGYHAGFNHGFNCAESTNFATRRWIEYGKQAVLCSCRKDMVKISMDVFVRKFQPERYKLWKAGKDNTVIDHTLPTPEAAEFLKESELPPRAGNEEECPEEDMEGVEDGEEGDLKTSLAKHRIGTKRHRVCLEIPQEVSQSELFPKEDLSSEQYEMTECPAALAPVRPTHSSVRQVEDGLTFPDYSDSTEVKFEELKNVKLEEEDEEEEQAAAALDLSVNPASVGGRLVFSGSKKKSSSSLGSGSSRDSISSDSETSEPLSCRAQGQTGVLTVHSYAKGDGRVTVGEPCTRKKGSAARSFSERELAEVADEYMFSLEENKKSKGRRQPLSKLPRHHPLVLQECVSDDETSEQLTPEEEAEETEAWAKPLSQLWQNRPPNFEAEKEFNETMAQQAPHCAVCMIFQTYHQVEFGGFNQNCGNASDLAPQKQRTKPLIPEMCFTSTGCSTDINLSTPYLEEDGTSILVSCKKCSVRVHASCYGVPPAKASEDWMCSRCSANALEEDCCLCSLRGGALQRANDDRWVHVSCAVAILEARFVNIAERSPVDVSKIPLPRFKLKCIFCKKRRKRTAGCCVQCSHGRCPTAFHVSCAQAAGVMMQPDDWPFVVFITCFRHKIPNLERAKGALQSITAGQKVISKHKNGRFYQCEVVRLTTETFYEVNFDDGSFSDNLYPEDIVSQDCLQFGPPAEGEVVQVRWTDGQVYGAKFVASHPIQMYQVEFEDGSQLVVKRDDVYTLDEELPKRVKSRLSVASDMRFNEIFTEKEVKQEKKRQRVINSRYREDYIEPALYRAIME	+	+/−
2A-V919M: KDM4A mutation (protein) MASESETLNPSARIMTFYPTMEEFRNFSRYIAYIESQGAHRAGLAKVVPPKEWKPRASYDDIDDLVIPAPIQQLVTGQSGLFTQYNIQKKAMTVREFRKIANSDKYCTPRYSEFEELERKYWKNLTFNPPIYGADVNGTLYEKHVDEWNIGRLRTILDLVEKESGITIEGVNTPYLYFGMWKTSFAWHTEDMDLYSINYLHFGEPKSWYSVPPEHGKRLERLAKGFFPGSAQSCEAFLRHKMTLISPLMLKKYGIPFDKVTQEAGEFMITFPYGYHAGFNHGFNCAESTNFATRRWIEYGKQAVLCSCRKDMVKISMDVFVRKFQPERYKLWKAGKDNTVIDHTLPTPEAAEFLKESELPPRAGNEEECPEEDMEGVEDGEEGDLKTSLAKHRIGTKRHRVCLEIPQEVSQSELFPKEDLSSEQYEMTECPAALAPVRPTHSSVRQVEDGLTFPDYSDSTEVKFEELKNVKLEEEDEEEEQAAAALDLSVNPASVGGRLVFSGSKKKSSSSLGSGSSRDSISSDSETSEPLSCRAQGQTGVLTVHSYAKGDGRVTVGEPCTRKKGSAARSFSERELAEVADEYMFSLEENKKSKGRRQPLSKLPRHHPLVLQECVSDDETSEQLTPEEEAEETEAWAKPLSQLWQNRPPNFEAEKEFNETMAQQAPHCAVCMIFQTYHQVEFGGFNQNCGNASDLAPQKQRTKPLIPEMCFTSTGCSTDINLSTPYLEEDGTSILVSCKKCSVRVHASCYGVPPAKASEDWMCSRCSANALEEDCCLCSLRGGALQRANDDRWVHVSCAVAILEARFVNIAERSPVDVSKIPLPRFKLKCIFCKKRRKRTAGCCVQCSHGRCPTAFHVSCAQAAGVMMQPDDWPFVVFITCFRHKIPNLERAKGALQSITAGQKVISKHKNGRFYQCEMVRLTTETFYEVNFDDGSFSDNLYPEDIVSQDCLQFGPPAEGEVVQVRWTDGQVYGAKFVASHPIQMYQVEFEDGSQLVVKRDDVYTLDEELPKRVKSRLSVASDMRFNEIFTEKEVKQEKKRQRVINSRYREDYIEPALYRAIME	+	
